Experimental data from US20190269761A1.

Key:
[1] = target: mSWI/SNF (BAF) complexes, endogenous; assay: urea denaturation of 293T nuclear extract followed by anti-Brg IP and immunoblot
[2] = target: mSWI/SNF (BAF) complexes, endogenous; assay: urea denaturation and IP, as restated in the discussion
[3] = target: mSWI/SNF (BAF) complexes, endogenous; assay: quantitative densitometry of anti-SS18 immunoblot of glycerol gradient, Aska-SS cells bearing SS18-SSX1
[4] = target: mSWI/SNF (BAF) complexes, endogenous; assay: urea denaturation and IP, as restated in the discussion; complexes of synovial sarcoma cells

Row | Substance | urea concentration required to dissociate [1] | urea concentration required to remove [2] | percentage of BAF complexes that contain wild-type SS18 [3] | urea concentration required to remove [4]
1 | SS18 (wild-type, endogenous human) (from UniProt Q15532 2-418) | 5 M | 8 M | 2 to 8% | 
2 | SS18-SSX1 fusion protein (from UniProt Q15532 1-379) |  |  |  | 8 M
